Laboratory results from the supplement of paper PMC5998384.

Tests used:
[1] = system: HeLa Kyoto; test: solubility in G1/S (NP-40 vs SDS abundance) (log2 ratio); higher = more soluble; conditions: cell cycle stage: G1/S
[2] = system: HeLa Kyoto; test: solubility change mitosis vs G1/S (difference of NP-40 vs SDS log2 ratios) (log2 ratio difference); higher = more soluble in mitosis
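Wherever solubility change mitosis vs G1/S (difference of NP-40 vs SDS log2 ratios) is given: synchronized HeLa Kyoto cells (double thymidine block for G1/S, nocodazole release for mitosis), protein amounts in NP-40 versus SDS lysates quantified by mass spectrometry, three biological replicates.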
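Wherever solubility in G1/S (NP-40 vs SDS abundance) is given: HeLa Kyoto cells arrested at G1/S by double thymidine block, proteins quantified by TMT10plex mass spectrometry in mild NP-40 versus SDS extracts, three biological replicates.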

CABIN1, sequence (chain, as listed by the source): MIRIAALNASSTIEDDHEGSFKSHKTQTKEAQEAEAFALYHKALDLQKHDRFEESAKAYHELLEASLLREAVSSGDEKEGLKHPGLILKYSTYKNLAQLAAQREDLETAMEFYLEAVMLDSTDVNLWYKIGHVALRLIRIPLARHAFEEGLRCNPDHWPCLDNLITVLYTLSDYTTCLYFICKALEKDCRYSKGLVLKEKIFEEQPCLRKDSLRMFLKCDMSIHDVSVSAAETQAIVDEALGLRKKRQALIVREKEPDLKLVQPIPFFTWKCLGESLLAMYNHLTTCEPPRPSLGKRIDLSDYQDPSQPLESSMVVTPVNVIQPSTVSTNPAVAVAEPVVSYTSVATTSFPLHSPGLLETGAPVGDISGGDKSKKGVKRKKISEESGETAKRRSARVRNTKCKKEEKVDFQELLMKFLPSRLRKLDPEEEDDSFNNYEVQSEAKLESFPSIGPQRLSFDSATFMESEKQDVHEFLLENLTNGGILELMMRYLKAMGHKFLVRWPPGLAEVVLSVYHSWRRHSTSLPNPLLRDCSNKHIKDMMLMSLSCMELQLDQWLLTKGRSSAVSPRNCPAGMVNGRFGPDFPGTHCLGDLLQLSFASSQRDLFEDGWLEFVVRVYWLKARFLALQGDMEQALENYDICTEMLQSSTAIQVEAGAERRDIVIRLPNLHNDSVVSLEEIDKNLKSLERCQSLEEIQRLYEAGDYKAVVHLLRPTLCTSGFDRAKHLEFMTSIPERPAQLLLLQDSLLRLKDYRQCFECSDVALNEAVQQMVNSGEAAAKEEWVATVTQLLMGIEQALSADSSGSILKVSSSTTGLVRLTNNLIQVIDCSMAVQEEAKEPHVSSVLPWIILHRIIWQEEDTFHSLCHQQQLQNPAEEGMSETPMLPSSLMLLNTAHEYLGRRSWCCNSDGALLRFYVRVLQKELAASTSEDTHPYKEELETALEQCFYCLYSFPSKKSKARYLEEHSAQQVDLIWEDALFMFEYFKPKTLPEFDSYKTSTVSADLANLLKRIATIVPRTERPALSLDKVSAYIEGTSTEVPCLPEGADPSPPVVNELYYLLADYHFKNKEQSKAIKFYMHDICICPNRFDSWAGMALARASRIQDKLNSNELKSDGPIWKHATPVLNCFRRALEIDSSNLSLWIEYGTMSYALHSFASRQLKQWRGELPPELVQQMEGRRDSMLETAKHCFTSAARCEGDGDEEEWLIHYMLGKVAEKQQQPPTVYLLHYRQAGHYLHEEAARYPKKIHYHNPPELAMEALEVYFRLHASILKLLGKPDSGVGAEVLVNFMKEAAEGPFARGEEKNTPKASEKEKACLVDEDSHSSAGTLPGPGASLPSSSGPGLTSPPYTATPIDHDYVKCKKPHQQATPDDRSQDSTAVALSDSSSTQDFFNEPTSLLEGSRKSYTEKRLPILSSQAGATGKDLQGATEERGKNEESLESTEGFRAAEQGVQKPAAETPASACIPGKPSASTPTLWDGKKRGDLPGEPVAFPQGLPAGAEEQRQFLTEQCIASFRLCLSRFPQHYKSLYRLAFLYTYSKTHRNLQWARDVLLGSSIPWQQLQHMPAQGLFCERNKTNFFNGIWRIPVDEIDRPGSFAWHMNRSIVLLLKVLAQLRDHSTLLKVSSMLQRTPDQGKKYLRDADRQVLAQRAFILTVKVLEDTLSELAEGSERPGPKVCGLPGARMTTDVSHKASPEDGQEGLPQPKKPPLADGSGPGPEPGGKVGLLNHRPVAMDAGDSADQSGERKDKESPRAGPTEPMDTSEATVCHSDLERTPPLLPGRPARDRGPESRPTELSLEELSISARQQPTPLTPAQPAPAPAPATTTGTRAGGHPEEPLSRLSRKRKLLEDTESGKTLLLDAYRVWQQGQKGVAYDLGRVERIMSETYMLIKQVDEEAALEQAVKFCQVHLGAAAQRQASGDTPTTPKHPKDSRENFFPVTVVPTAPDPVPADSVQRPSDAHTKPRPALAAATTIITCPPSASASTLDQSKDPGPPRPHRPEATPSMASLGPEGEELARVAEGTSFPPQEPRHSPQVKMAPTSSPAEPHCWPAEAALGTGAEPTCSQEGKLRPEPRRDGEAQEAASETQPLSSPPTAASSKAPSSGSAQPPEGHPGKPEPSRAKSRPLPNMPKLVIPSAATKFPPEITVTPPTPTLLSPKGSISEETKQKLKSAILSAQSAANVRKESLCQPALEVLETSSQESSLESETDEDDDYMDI

Substance | solubility in G1/S (log2) [1] | solubility change mitosis (log2) [2]
MAAEEADVDIEGDVVAAAGAQPGSGENTASVLQKDHYLDSSWRTENGLIPWTLDNTISEENRAVIEKMLLEEEYYLSKKSQPEKVWLDQKEDDKKYMKSLQKTAKIMVHSPTKPASYSVKWTIEEKELFEQGLAKFGRRWTKISKLIGSRTVLQVKSYARQYFKNKVKCGLDKETPNQKTGHNLQVKNEDKGTKAWTPSCLRGRADPNLNAVKIEKLSDDEEVDITDEVDELSSQTPQKNSSSDLLLDFPNSKMHETNQGEFITSDSQEALFSKSSRGCLQNEKQDETLSSSEITLWTEKQSNGDKKSIELNDQKFNELIKNCNKHDGRGIIVDARQLPSPEPCEIQKNLNDNEMLFHSCQMVEESHEEEELKPPEQEIEIDRNIIQEEEKQAIPEFFEGRQAKTPERYLKIRNYILDQWEICKPKYLNKTSVRPGLKNCGDVNCIGRIHTYLELIGAINFGCEQAVYNRPQTVDKVRIRDRKDAVEAYQLAQRLQSMRTRRRRVRDPWGNWCDAKDLEGQTFEHLSAEELAKRREEEKGRPVKSLKVPRPTKSSFDPFQLIPCNFFSEEKQEPFQVKVASEALLIMDLHAHVSMAEVIGLLGGRYSEVDKVVEVCAAEPCNSLSTGLQCEMDPVSQTQASETLAVRGFSVIGWYHSHPAFDPNPSLRDIDTQAKYQSYFSRGGAKFIGMIVSPYNRNNPLPYSQITCLVISEEISPDGSYRLPYKFEVQQMLEEPQWGLVFEKTRWIIEKYRLSHSSVPMDKIFRRDSDLTCLQKLLECMRKTLSKVTNCFMAEEFLTEIENLFLSNYKSNQENGVTEENCTKELLM [MYSM1] | -0.108 | -0.109
CENPE | -0.0612 | -0.1
MAAPSLLNWRRVSSFTGPVPRARHGHRAVAIRELMIIFGGGNEGIADELHVYNTATNQWFLPAVRGDIPPGCAAHGFVCDGTRILVFGGMVEYGRYSNELYELQASRWLWKKVKPHPPPSGLPPCPRLGHSFSLYGNKCYLFGGLANESEDSNNNVPRYLNDFYELELQHGSGVVGWSIPVTKGVVPSPRESHTAVIYCKKDSGSPKMYVFGGMCGARLDDLWQLDLETMSWSKPETKGTVPLPRSLHTASVIGNKMYIFGGWVPHKGENTETSPHDCEWRCTSSFSYLNLDTTEWTTLVSDSQEDKKNSRPRPRAGHCAVAIGTRLYFWSGRDGYKKALNSQVCCKDLWYLDTEKPPAPSQVQLIKATTNSFHVKWDEVSTVEGYLLQLSTDLPYQAASSDSSAAPNMQGVRMDPHRQGSNNIVPNSINDTINSTKTEQPATKETSMKNKPDFKALTDSNAILYPSLASNASNHNSHVVDMLRKNEGPHTSANVGVLSSCLDVRTVIPETSVSSTVSSTQTMVTQQTIKTESSSTNGAVVKDETSLTTFSTKSEVDETYALPATKISRVETHATATPFSKETPSNPVATVKAGERQWCDVGIFKNNTALVSQFYLLPKGKQSISKVGNADVPDYSLLKKQDLVPGTGYRFRVAAINGCGIGPFSKISEFKTCIPGFPGAPSAVRISKNVEGIHLSWEPPTSPSGNILEYSAYLAIRTAQIQDNPSQLVFMRIYCGLKTSCIVTAGQLANAHIDYTSRPAIVFRISAKNEKGYGPATQVRWLQGNNKKAPLN [HCFC2] | -0.228 | -0.0821
MAEIIQERIEDRLPELEQLERIGLFSHAEIKAIIKKASDLEYKIQRRTLFKEDFINYVQYEINLLELIQRRRTRIGYSFKKDEIENSIVHRVQGVFQRASAKWKDDVQLWLSYVAFCKKWATKTRLSKVFSAMLAIHSNKPALWIMAAKWEMEDRLSSESARQLFLRALRFHPECPKLYKEYFRMELMHAEKLRKEKEEFEKASMDVENPDYSEEILKGELAWIIYKNSVSIIKGAEFHVSLLSIAQLFDFAKDLQKEIYDDLQALHTDDPLTWDYVARRELEIESQTEEQPTTKQAKAVEVGRKEERCCAVYEEAVKTLPTEAMWKCYITFCLERFTKKSNSGFLRGKRLERTMTVFRKAHELKLLSECQYKQLSVSLLCYNFLREALEVAVAGTELFRDSGTMWQLKLQVLIESKSPDIAMLFEEAFVHLKPQVCLPLWISWAEWSEGAKSQEDTEAVFKKALLAVIGADSVTLKNKYLDWAYRSGGYKKARAVFKSLQESRPFSVDFFRKMIQFEKEQESCNMANIREYYERALREFGSADSDLWMDYMKEELNHPLGRPENCGQIYWRAMKMLQGESAEAFVAKHAMHQTGHL [UTP6] | -2.05 | 0.707
CABIN1 | -0.34 | 0.144
MRRSRSSAAAKLRGQKRSGASGASAAPAASAAAALAPSATRTRRSASQAGSKSQAVEKPPSEKPRLRRSSPRAQEEGPGEPPPPELALLPPPPPPPPTPATPTSSASNLDLGEQRERWETFQKRQKLTSEGAAKLLLDTFEYQGLVKHTGGCHCGAVRFEVWASADLHIFDCNCSICKKKQNRHFIVPASRFKLLKGAEHITTYTFNTHKAQHTFCKRCGVQSFYTPRSNPGGFGIAPHCLDEGTVRSMVTEEFNGSDWEKAMKEHKTIKNMSKE [CENPV] | -2.01 | 0.822
MEKRLQEAQLYKEEGNQRYREGKYRDAVSRYHRALLQLRGLDPSLPSPLPNLGPQGPALTPEQENILHTTQTDCYNNLAACLLQMEPVNYERVREYSQKVLERQPDNAKALYRAGVAFFHLQDYDQARHYLLAAVNRQPKDANVRRYLQLTQSELSSYHRKEKQLYLGMFG [TTC9C] | 0.247 | 0.459
MANETQKVGAIHFPFPFTPYSIQEDFMAELYRVLEAGKIGIFESPTGTGKSLSLICGALSWLRDFEQKKREEEARLLETGTGPLHDEKDESLCLSSSCEGAAGTPRPAGEPAWVTQFVQKKEERDLVDRLKAEQARRKQREERLQQLQHRVQLKYAAKRLRQEEEERENLLRLSREMLETGPEAERLEQLESGEEELVLAEYESDEEKKVASRVDEDEDDLEEEHITKIYYCSRTHSQLAQFVHEVKKSPFGKDVRLVSLGSRQNLCVNEDVKSLGSVQLINDRCVDMQRSRHEKKKGAEEEKPKRRRQEKQAACPFYNHEQMGLLRDEALAEVKDMEQLLALGKEARACPYYGSRLAIPAAQLVVLPYQMLLHAATRQAAGIRLQDQVVIIDEAHNLIDTITGMHSVEVSGSQLCQAHSQLLQYVERYGKRLKAKNLMYLKQILYLLEKFVAVLGGNIKQNPNTQSLSQTGTELKTINDFLFQSQIDNINLFKVQRYCEKSMISRKLFGFTERYGAVFSSREQPKLAGFQQFLQSLQPRTTEALAAPADESQASTLRPASPLMHIQGFLAALTTANQDGRVILSRQGSLSQSTLKFLLLNPAVHFAQVVKECRAVVIAGGTMQPVSDFRQQLLACAGVEAERVVEFSCGHVIPPDNILPLVICSGISNQPLEFTFQKRELPQMMDEVGRILCNLCGVVPGGVVCFFPSYEYLRQVHAHWEKGGLLGRLAARKKIFQEPKSAHQVEQVLLAYSRCIQACGQERGQVTGALLLSVVGGKMSEGINFSDNLGRCVVMVGMPFPNIRSAELQEKMAYLDQTLSPRPGTPREGSGGEPVHEGRQPVHRQGHQAPEGFCQRSAPGPAICPAPCPGQAAGLDPSPCGGQSYLWPRHCCCAEVSPGEVGLFLMGNHTTAWRRALPLSCPLETVFVVGVVCGDPVTKVKPRRRVWSPECCQDPGTGVSSRRRKWGNPE [DDX11] | -0.119 | -0.0575
MLLSVTSRPGISTFGYNRNNKKPYVSLAQQMAPPSPSNSTPNSSSGSNGNDQLSKTNLYIRGLQPGTTDQDLVKLCQPYGKIVSTKAILDKTTNKCKGYGFVDFDSPSAAQKAVTALKASGVQAQMAKQQEQDPTNLYISNLPLSMDEQELEGMLKPFGQVISTRILRDTSGTSRGVGFARMESTEKCEAIITHFNGKYIKTPPGVPAPSDPLLCKFADGGPKKRQNQGKFVQNGRAWPRNADMGVMALTYDPTTALQNGFYPAPYNITPNRMLAQSALSPYLSSPVSSYQRVTQTSPLQVPNPSWMHHHSYLMQPSGSVLTPGMDHPISLQPASMMGPLTQQLGHLSLSSTGTYMPTAAAMQGAYISQYTPVPSSSVSVEESSGQQNQVAVDAPSEHGVYSFQFNK [RBMS2] | 0.474 | 0.0678
